The values that follow are results of earlier work, collected in patent US20090023631A1, “Composition and Method of Use for Soft Tissue Augmentation/Drug Delivery” (priority 2007, published 2009).

The subject of this data set is stage III and IV ulcers. As to conditions: multiple studies.

B1: recombinant human PDGF-BB: platelet-derived growth factor, commercial product available as recombinant human PDGF-BB (protein, UniProt P01127 82-190, looked up)
Platelet-derived growth …: SLGSLTIAEPAMIAECKTRTEVFEISRRLIDRTNANFLVWPPCVEVQRCSGCCNNRNVQCRPTQVQLRPVQVRKIEIVRKKPIFKKATVTLEDHLACKCETVAAARPVT
modifications: BB homodimer
On to B1, for which the healing time result is given as “reduce healing time” and the “incidence of complete wound healing” value was “improve the incidence of complete wound healing”.
